One block for each substance: values may come before it.
Legend:
[1] = target: T1, human transferrin receptor (hTfR) (Homo sapiens, UniProt P02786); experiment: Competition studies of phage binding to CEF+hTfR cells; details: competitor added prior to phage, 1 hour at 4° C.
T1 construct: expressed in transfected cells; host or cells: chicken embryo fibroblasts (CEF+hTfR), stably transduced with a retroviral vector
Protocol: Binding and Competition Studies: Purified phage populations were amplified and were verified to be homogenous through DNA sequencing. Cells were prepared for binding as was described for biopanning procedures. Preparations of plaque-purified and titered phage (1×10^11) were incubated in serum-free Opti-MEM on either CEF or CEF+hTfR cells at 4° C. for 1 hour. The cells were washed repeatedly with Opti-HEM and bound phage were eluted with low pH buffer and subsequently titered. In competition studies, holo-transferrin (Calbiochem, La Jolla, Calif.) or synthesized peptides were added to CEF+hTfR cells prior to addition of the phage for 1 hour at 4° C. Multiple trials were completed and average titers and standard deviations determined. The titers determined on CEF+hTfR cells were divided by the titers determined on CEF cells and multiplied by 100 to yield fold over control data points.
Due to a synthesis error, a peptide with the sequence HAIYPNH (Seq. ID No. 14) was also synthesized.

[2] = tested on: CEF+hTfR cells; experiment: Immunofluorescence binding and internalization on CEF+hTfR cells; format: cell-based, chicken; details: for endocytosis into CEF+hTfR cells (fluorescence after low pH buffer wash): 37° C., low pH buffer wash before fixation
Protocol: Immunofluorescence: CEF+hTfR cells were grown on glass coverslips to 50% to 75% confluence. The coverslips were washed and incubated in serum-free Opti-MEM media at 37° C. for 1 hour. […] Cells were washed with Opti-MEM, then fixed in 3% formaldehyde for 30 minutes at 4° C. Alternatively, the cells were acid-washed with 0.2 M glycine-HCl, Ph 2.2, prior to fixation. A GFP monoclonal antibody (Clontech) was used in conjunction with an Oregon-Green Goat Anti-Mouse (Molecular Probes) to augment GFP fluorescence. All slides were counterstained with DAPI (2(4Amidinophenyl)-6indole carbamidinedihydrochioride) (Sigma). The microscopic slides were mounted in Prolong™ antifade medium (Molecular Probes). Images were captured on an AX70 microscope with Olympus Camera (Olympus, Melville, N.Y.) and analyzed with ESPRIT software (Life Science Resources, Cambridge, England). Final figures were assembled using Microsoft Power Point (Microsoft Corp., Redmond, Wash.).
To evaluate the sufficiency of capacity of the peptides to mediate uptake of carrier protein, GFP fusion proteins were prepared. Immunofluorescence was used to determine if the GFP-peptides fusion constructs were internalized using the following assay. GFP-peptide constructs were cloned with a C-terminal peptide addition of either HAIYPRH (Seq. ID No. 1) (GFP-HAIYPRH) or […] (Seq. ID No. 2) (GFP-[…]). These constructs were expressed and purified to greater than 95% by Coomassie staining. Purified proteins were applied to CEF+hTfR cells at 4° C. (which prevents endocytosis) or at 37° C. […] This acid wash determined whether the protein was endocytosed by removing proteins bound at the cell surface. […]
Immunofluorescence images of the localization of various proteins applied to CEF+hTfR cells at either 4° C. or 37° were studied. […] The total fluorescence shown could result from both cell surface and endocytosed proteins.
The cells that had undergone a low pH buffer wash to enable identification of proteins that had been endocytosed were evaluated.

[3] = target: T1, human transferrin receptor (hTfR); experiment: Scatchard analysis of 125I-labelled protein binding to CEF+hTfR cells; details: CEF+hTfR cells on ice, 1 hour, read-out: binding affinity (Scatchard)
Protocol: 1M NaOH was added to lyse the cells for determining the bound fraction. Both unbound and bound fractions were counted in a gamma counter and binding affinities were determined using Scatchard analysis.
Serial dilutions of labelled proteins were incubated with CEF+hTfR cells on ice in PBS-0.1% BSA in duplicate wells. After 1 hour, the unbound fraction was removed and cells were washed four times. Cells were removed from the well with 1N NaOH. The unbound and bound fractions were counted in a gamma counter and fmoles of bound and unbound were calculated. Scatchard plots were derived by plotting bound versus bound/free of an average value generated by the duplicate wells. A best of fit line was generated using the Excel program (Microsoft Corp.) and the binding affinities were determined by the slope of the plotted lines.

[4] = tested on: CEF cells; experiment: Immunofluorescence binding assays on CEF cells; format: cell-based, chicken; details: 4° C. or 37° C., CEF cells lack the hTfR

T1 sequence (P02786 whole entry): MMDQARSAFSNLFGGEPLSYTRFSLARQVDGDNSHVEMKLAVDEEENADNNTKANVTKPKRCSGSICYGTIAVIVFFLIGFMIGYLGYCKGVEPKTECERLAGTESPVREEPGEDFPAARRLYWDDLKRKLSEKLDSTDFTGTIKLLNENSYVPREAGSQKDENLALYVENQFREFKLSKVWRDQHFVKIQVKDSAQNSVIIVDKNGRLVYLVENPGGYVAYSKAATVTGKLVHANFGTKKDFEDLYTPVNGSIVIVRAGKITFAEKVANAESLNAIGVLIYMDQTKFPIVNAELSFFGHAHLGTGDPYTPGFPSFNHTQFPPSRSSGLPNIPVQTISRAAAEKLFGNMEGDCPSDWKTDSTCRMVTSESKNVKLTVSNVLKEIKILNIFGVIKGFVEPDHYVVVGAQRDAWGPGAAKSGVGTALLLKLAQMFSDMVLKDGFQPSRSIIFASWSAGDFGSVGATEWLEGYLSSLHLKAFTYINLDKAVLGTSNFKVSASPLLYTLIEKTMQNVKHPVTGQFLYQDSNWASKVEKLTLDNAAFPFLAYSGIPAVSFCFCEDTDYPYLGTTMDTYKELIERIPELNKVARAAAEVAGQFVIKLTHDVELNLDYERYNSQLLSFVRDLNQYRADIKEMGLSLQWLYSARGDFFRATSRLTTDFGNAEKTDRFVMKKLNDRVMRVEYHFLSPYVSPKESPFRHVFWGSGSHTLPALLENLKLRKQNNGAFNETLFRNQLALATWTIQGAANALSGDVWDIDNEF

Substance: HAIYPNH [peptide synthesized due to a synthesis error, asparagine in place of arginine]
competition of HAIYPRH phage binding to CEF+hTfR cells by added peptide or Tf [1]: no effect

Substance: Texas-Red Tf: Tf conjugated to the Texas-Red fluorochrome, positive control
endocytosis into CEF+hTfR cells (fluorescence after low pH buffer wash) [2]: readily endocytosed

Substance: HAIYPRH
competition of HAIYPRH phage binding to CEF+hTfR cells by added peptide or Tf [1]: competed away to background levels
competition of THRPPMWSPVWP phage binding to CEF+hTfR cells by added peptide or Tf [1]: failed to significantly compete

Substance: Tf: transferrin from human serum, native ligand of hTfR
binding or internalization on CEF cells [4]: neither of the GFP fusion proteins or transferrin bound or internalized

Now from value to substance, other results behind:

Kd [3]: 240 µM
Substance: wtGFP: purified wild-type green fluorescent protein, negative control
localization/binding of protein on CEF+hTfR cells without acid wash ([2]; 37° C. for one hour, no acid wash): minimal binding
endocytosis into CEF+hTfR cells (fluorescence after low pH buffer wash) [2]: unable to be endocytosed

competition of HAIYPRH phage binding to CEF+hTfR cells by added peptide or Tf [1]: failed to significantly compete
Substance: THRPPMWSPVWP

competition of THRPPMWSPVWP phage binding to CEF+hTfR cells by added peptide or Tf [1]: not by the scrambled 12-mer sequence
Substance: PWRPSHPVWMPT
